Results taken from patent publication US20110263454A1, “Methods of Identifying Functional Characteristics of Promoters, Transcription Modifying Proteins and Transcription Modulating Agents” (Salk Institute for Biological Studies, priority 2008, published 2011).

Tests used:
mAgrp promoter = assay: NHR-promoter luciferase screen, mAgrp promoter; assay type: cell-based, mouse; details: for Results of assays of transcription factor (+/- ligand) with mAgrp: Table 6d, luciferase activity relative to control (control = 1.00); for Luc. act., normalized to lacZ / Normalized Luc. act., normalized to control: mAgrp promoter, HR component with or without ligand; for Normalized Luc. act., normalized to control: relative to control
Outline: (§1)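 CV-1 cells were co-transfected with 50 ng NHR (homodimer or NHR/RXR heterodimer), 100 ng promoter-luciferase construct and 50 ng LacZ. Luciferase was normalized to LacZ and to a no-NHR/no-ligand control.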

mUCP1 promoter = assay: NHR-promoter luciferase screen, mUCP1 promoter; assay type: cell-based, mouse; details: for Luc. act., normalized to lacZ / Normalized Luc. act., normalized to control: mUCP1 promoter reporter, co-transfected HR, with or without its ligand; for Normalized Luc. act., normalized to control: relative to control; for luciferase activity normalized to lacZ activity and to a control, mUCP!: mUCP! promoter-luciferase, CV-1 cells, NHR +/- ligand, control = 1.00
Outline: as §1

hIRF7 promoter = assay: NHR-promoter luciferase screen, hIRF7 promoter; assay type: cell-based, human; details: for Normalized Luc. act., normalized to control / Luc. act., normalized to lacZ: IRF7 promoter reporter; for Normalized Luc. act., normalized to control: HR without or with its ligand, relative to control; for Luc. act., normalized to lacZ: hormone receptor (HR) without or with its ligand; for hIRF7 promoter reporter activity: transcription factor +/- ligand, control = 1.00
Outline: as §1

Bmal1 promoter = assay: NHR-promoter luciferase screen, Bmal1 promoter; assay type: cell-based, mouse; details: for Luc. act., normalized to lacZ / Normalized Luc. act., normalized to control: Bmal1 promoter, HR component without or with ligand; for mBmal1 promoter reporter activity: transcription factor +/- ligand, control = 1.00
Outline: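 CV-1 cells co-transfected with 50 ng NHR (V5H6-tagged, pcDNA3.1; homodimer or RXR heterodimer), 100 ng Bmal1 promoter-luciferase and 50 ng LacZ. Luciferase was normalized to LacZ and to a no-NHR/ligand control.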

mGhrelin promoter = assay: NHR-promoter luciferase screen, mGhrelin promoter; assay type: cell-based, mouse; details: for Luc. act., normalized to lacZ / Normalized Luc. act., normalized to control: Table 8, mGhrelin; for Results of assays of transcription factor (+/- ligand) with mGhrelin: Table 6d, luciferase activity relative to control (control = 1.00)
Outline: as §1

Molecule | Results of assays of transcription factor (+/- ligand) with mAgrp (mAgrp promoter) | Luc. act., normalized to lacZ (mAgrp promoter) | Normalized Luc. act., normalized to control (mAgrp promoter) | Luc. act., normalized to lacZ (mUCP1 promoter) | Normalized Luc. act., normalized to control (mUCP1 promoter) | luciferase activity normalized to lacZ activity and to a control, mUCP! (mUCP1 promoter) | Normalized Luc. act., normalized to control (hIRF7 promoter) | Luc. act., normalized to lacZ (hIRF7 promoter) | hIRF7 promoter reporter activity (hIRF7 promoter) | Luc. act., normalized to lacZ (Bmal1 promoter) | Normalized Luc. act., normalized to control (Bmal1 promoter) | mBmal1 promoter reporter activity (Bmal1 promoter) | Luc. act., normalized to lacZ (mGhrelin promoter) | Normalized Luc. act., normalized to control (mGhrelin promoter) | Results of assays of transcription factor (+/- ligand) with mGhrelin (mGhrelin promoter)
CTF3: COUP-TF3 (NR2F6), cDNA driver (protein, UniProt P10588 1-404, looked up) Nuclear receptor subfamily 2 …: MAMVTGGWGGPGGDTNGVDKAGGYPRAAEDDSASPPGAASDAEPGDEERPGLQVDCVVCGDKSSGKHYGVFTCEGCKSFFKRSIRRNLSYTCRSNRDCQIDQHHRNQCQYCRLKKCFRVGMRKEAVQRGRIPHSLPGAVAASSGSPPGSALAAVASGGDLFPGQPVSELIAQLLRAEPYPAAAGRFGAGGGAAGAVLGIDNVCELAARLLFSTVEWARHAPFFPELPVADQVALLRLSWSELFVLNAAQAALPLHTAPLLAAAGLHAAPMAAERAVAFMDQVRAFQEQVDKLGRLQVDSAEYGCLKAIALFTPDACGLSDPAHVESLQEKAQVALTEYVRAQYPSQPQRFGRLLLRLPALRAVPASLISQLFFMRLVGKTPIETLIRDMLLSGSTFNWPYGSGQ | 0.86 | 34.2 | 0.9 | 1.9 | 0.4 | 0.42 | 1.0 | 25.5 | 0.97 | 21.2 | 1.4 | 1.35 | 68.4 | 1.3 | 1.31
hMR: Mineralocorticoid Receptor (NR3C2, MR), cDNA driver (protein, UniProt P08235 1-984, looked up) Mineralocorticoid receptor: METKGYHSLPEGLDMERRWGQVSQAVERSSLGPTERTDENNYMEIVNVSCVSGAIPNNSTQGSSKEKQELLPCLQQDNNRPGILTSDIKTELESKELSATVAESMGLYMDSVRDADYSYEQQNQQGSMSPAKIYQNVEQLVKFYKGNGHRPSTLSCVNTPLRSFMSDSGSSVNGGVMRAVVKSPIMCHEKSPSVCSPLNMTSSVCSPAGINSVSSTTASFGSFPVHSPITQGTPLTCSPNVENRGSRSHSPAHASNVGSPLSSPLSSMKSSISSPPSHCSVKSPVSSPNNVTLRSSVSSPANINNSRCSVSSPSNTNNRSTLSSPAASTVGSICSPVNNAFSYTASGTSAGSSTLRDVVPSPDTQEKGAQEVPFPKTEEVESAISNGVTGQLNIVQYIKPEPDGAFSSSCLGGNSKINSDSSFSVPIKQESTKHSCSGTSFKGNPTVNPFPFMDGSYFSFMDDKDYYSLSGILGPPVPGFDGNCEGSGFPVGIKQEPDDGSYYPEASIPSSAIVGVNSGGQSFHYRIGAQGTISLSRSARDQSFQHLSSFPPVNTLVESWKSHGDLSSRRSDGYPVLEYIPENVSSSTLRSVSTGSSRPSKICLVCGDEASGCHYGVVTCGSCKVFFKRAVEGQHNYLCAGRNDCIIDKIRRKNCPACRLQKCLQAGMNLGARKSKKLGKLKGIHEEQPQQQQPPPPPPPPQSPEEGTTYIAPAKEPSVNTALVPQLSTISRALTPSPVMVLENIEPEIVYAGYDSSKPDTAENLLSTLNRLAGKQMIQVVKWAKVLPGFKNLPLEDQITLIQYSWMCLSSFALSWRSYKHTNSQFLYFAPDLVFNEEKMHQSAMYELCQGMHQISLQFVRLQLTFEEYTIMKVLLLLSTIPKDGLKSQAAFEEMRTNYIKELRKMVTKCPNNSGQSWQRFYQLTKLLDSMHDLVSDLLEFCFYTFRESHALKVEFPAMLVEIISDQLPKVESGNAKPLYFHRK | 0.79 | 31.2 | 0.8 | 2.1 | 0.5 | 0.48 | 0.8 | 21.1 | 0.80 | 18.2 | 1.2 | 1.17 | 49.7 | 1.0 | 0.95
